Measurements published in paper PMC2874686.

Molecular target: T1, Apaf-1 (human), O14727
T1 chain: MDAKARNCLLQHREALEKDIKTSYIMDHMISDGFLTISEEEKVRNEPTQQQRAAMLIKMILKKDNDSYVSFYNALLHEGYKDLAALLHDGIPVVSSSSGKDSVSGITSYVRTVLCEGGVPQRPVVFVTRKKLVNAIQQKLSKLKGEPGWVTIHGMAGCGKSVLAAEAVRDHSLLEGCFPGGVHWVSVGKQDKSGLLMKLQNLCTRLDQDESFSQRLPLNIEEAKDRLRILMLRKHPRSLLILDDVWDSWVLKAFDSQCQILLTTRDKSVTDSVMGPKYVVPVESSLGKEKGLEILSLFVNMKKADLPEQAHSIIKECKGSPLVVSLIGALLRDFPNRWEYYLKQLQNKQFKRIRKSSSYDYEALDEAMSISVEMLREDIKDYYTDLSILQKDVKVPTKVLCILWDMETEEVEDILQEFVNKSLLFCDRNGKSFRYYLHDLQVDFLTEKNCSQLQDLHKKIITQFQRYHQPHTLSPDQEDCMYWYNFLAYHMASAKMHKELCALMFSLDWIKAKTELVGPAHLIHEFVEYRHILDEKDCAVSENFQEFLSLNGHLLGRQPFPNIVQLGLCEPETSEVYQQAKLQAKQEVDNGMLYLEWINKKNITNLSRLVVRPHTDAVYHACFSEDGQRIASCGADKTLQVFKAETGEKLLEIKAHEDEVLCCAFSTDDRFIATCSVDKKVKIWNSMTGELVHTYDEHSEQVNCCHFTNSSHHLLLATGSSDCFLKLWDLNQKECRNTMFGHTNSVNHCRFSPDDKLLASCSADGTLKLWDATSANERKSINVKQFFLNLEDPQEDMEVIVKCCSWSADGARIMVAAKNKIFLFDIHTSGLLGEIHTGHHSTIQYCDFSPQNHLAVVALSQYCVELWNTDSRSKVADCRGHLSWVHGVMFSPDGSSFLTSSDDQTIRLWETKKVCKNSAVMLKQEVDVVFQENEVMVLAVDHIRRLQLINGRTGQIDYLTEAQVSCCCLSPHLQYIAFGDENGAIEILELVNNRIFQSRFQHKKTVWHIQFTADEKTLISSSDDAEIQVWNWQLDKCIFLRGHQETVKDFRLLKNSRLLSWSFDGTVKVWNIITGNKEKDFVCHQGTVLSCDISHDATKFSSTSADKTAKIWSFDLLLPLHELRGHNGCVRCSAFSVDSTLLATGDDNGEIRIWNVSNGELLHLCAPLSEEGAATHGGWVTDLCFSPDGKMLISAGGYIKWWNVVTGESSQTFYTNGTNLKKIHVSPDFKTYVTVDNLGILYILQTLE
Experiment: cryo-EM structure
Details: remark: other sources report otherwise

stoichiometry N: 7
B1: Apaf-1, O14727 1-1248 (natural protein)
chain: T1 chain
